In patent US20180051068A1 one finds endocytosis of S. cerevisiae by β1AGD25 cells (differential fluorescence assay) data, which are given here for one substance.

For the assay, the target named is integrin β1 expressed by the β1AGD25 cell line. The assay can be described thus: cell-based or functional assay.

Consider “CalA-mCherry expressed in S. cerevisiae that co-expresses Candida albicans Als1”, for which the endocytosis of S. cerevisiae by β1AGD25 cells (differential fluorescence assay) turned out to be 3 times.
